Publication PMC5461540, “MOB1 Mediated Phospho-recognition in the Core Mammalian Hippo Pathway” (Molecular & Cellular Proteomics : MCP, 2017)

Experiments:
[1] = molecular target: FITC labeled phosphorylated MST1 T367 peptide (human); assay: fluorescence polarisation; 20 nM FITC-labelled peptide, MOB protein titrated (12 points, triplicate); 25 mM HEPES pH 7.5, 150 mM NaCl, 2 mM DTT, 1 mg/ml BSA; one site-specific binding fit
[2] = molecular target: FITC labeled phosphorylated MST1 T353 peptide (human); assay: as above

Kd [1]	Kd [2]	Binder
12200 nM		MOB4 (tags cleaved) (natural protein) VMAEGTAVLRRNRPGTKAQDFYNWPDESFDEMDSTLAVQQYIQQNIRADCSNIDKILEPPEGQDEGVWKYEHLRQFCLELNGLAVKLQSECHPDTCTQMTATEQWIFLCAAHKTPKECPAIDYTRHTLDGAACLLNSNKYFPSRVSIKESSVAKLGSVCRRIYRIFSHAYFHHRQIFDEYENETFLCHRFTKFVMKYNLMSKDNLIVPILEEEVQNSVSGESEA
680 nM	280 nM	MOB1A wild-type (natural protein) SFLFSSRSSKTFKPKKNIPEGSHQYELLKHAEATLGSGNLRQAVMLPEGEDLNEWIAVNTVDFFNQINMLYGTITEFCTEASCPVMSAGPRYEYHWADGTNIKKPIKCSAPKYIDYLMTWVQDQLDDETLFPSKIGVPFPKNFMSVAKTILKRLFRVYAHIYHQHFDSVMQLQEEAHLNTSFKHFIFFVQEFNLIDRRELAPLQELIEKLGSKDR
